Paper PMC12479363 (Nature Immunology, 2025)

Target: SK56
Experiment: MST

B1: GSDMC-NT–GFP (domain or fragment)
chain: MPSMLERISKNLVKEIGSKDLTPVKYLLSATKLRQFVILRKKKDSRSSFWEQSDYVPVEFSLNDILEPSSSVLETVVTGPFHFSDIMIQKHKADMGVNVGIEVSVSGEASVDHGCSLEFQIVTIPSPNLEDFQKRKLLDPEPSFLKECRRRGDNLYVVTEAVELINNTVLYDSSSVNILGKIALWITYGKGQGQGESLRVKKKALTLQKGMVMAYKRKQLVIKEKAILISDDDEQRTFQD
In the case of B1, the Kd is reported as about 220 nM.
